In vitro phosphatase assay: free phosphate released from the p38 (pT180) phosphopeptide by His-WIP1 with GST-Tax, against His-WIP1 alone and in vitro phosphatase assay: free phosphate released from the H2AX (pS139) phosphopeptide by His-WIP1 (20 ng) with GST-Tax (100 ng), against His-WIP1 alone or with GST data for 1 substance are collected here from PMC3566092.

The target in assay [1] is Recombinant His-tagged WIP1ΔEx6 (UniProt O15297).
For assay [2] the target is unchanged. This is another data set of the same source.

Sequence of GST-Tax (P03409 whole entry): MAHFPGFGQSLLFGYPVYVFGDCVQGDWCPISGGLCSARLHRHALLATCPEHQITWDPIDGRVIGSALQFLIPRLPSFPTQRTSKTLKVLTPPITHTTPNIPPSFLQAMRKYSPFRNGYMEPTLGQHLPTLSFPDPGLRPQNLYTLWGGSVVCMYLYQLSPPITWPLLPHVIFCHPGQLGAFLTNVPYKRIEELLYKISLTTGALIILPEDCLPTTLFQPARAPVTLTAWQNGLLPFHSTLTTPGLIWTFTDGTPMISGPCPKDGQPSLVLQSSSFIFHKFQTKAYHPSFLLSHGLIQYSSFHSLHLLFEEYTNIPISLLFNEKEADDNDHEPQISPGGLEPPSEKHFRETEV

For the substance “GST-Tax (from UniProt P03409 1-353) (natural protein)”, in assay [1], the in vitro phosphatase assay: free phosphate released from the p38 (pT180) phosphopeptide by His-WIP1 with GST-Tax, against His-WIP1 alone was determined as 2 fold. In addition, the in vitro phosphatase assay: free phosphate released from the H2AX (pS139) phosphopeptide by His-WIP1 (20 ng) with GST-Tax (100 ng), against His-WIP1 alone or with GST in assay [2] amounted to 2 fold.
